From paper PMC4366279 (PLoS ONE, 2015)

Tests used:
[1] = target: T1, T. brucei RNA Editing Ligase 1 (TbREL1), full length wild type (Trypanosoma brucei, UniProt P86926 45-469, [35S]-methionine labelled); test: cell-based or functional assay
T1 sequence: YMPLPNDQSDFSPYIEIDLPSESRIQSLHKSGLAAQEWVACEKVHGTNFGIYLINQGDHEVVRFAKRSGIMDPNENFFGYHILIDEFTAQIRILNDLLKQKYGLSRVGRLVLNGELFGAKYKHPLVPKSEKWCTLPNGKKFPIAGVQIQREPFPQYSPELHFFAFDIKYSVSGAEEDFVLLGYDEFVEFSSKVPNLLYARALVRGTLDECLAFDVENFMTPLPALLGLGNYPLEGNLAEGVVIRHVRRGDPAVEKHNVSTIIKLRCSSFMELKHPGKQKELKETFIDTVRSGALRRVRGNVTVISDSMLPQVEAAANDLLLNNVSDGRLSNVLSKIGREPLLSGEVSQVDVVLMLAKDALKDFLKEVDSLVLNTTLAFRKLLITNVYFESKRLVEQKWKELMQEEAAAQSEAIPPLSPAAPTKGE

TbREL1 E444A = target: T2, TbREL1 E444A (Trypanosoma brucei, UniProt P86926 45-469, E444A, [35S]-methionine labelled); test: pull-down; His6-TbREL1 TNT mixture mixed with an equal volume of untagged KREPA2 TNT mixture, captured on magnetic His-tag isolation beads (Dynabeads); binding buffer 50 mM NaPO4 pH 8.0, 300 mM NaCl, 0.01% Tween 20; 20-30 min at 4°C; three washes; [35S]-methionine-labelled proteins on 10% SDS-PAGE, PhosphorImager; KREPA2-only control for background; conditions: partners not purified
T2 construct: Site-directed mutagenesis of TbREL1-pET30a; source: in vitro translated (TNT reticulocyte lysate coupled transcription and translation system, Promega); not shown: His6, N-terminal, kept
T2 sequence: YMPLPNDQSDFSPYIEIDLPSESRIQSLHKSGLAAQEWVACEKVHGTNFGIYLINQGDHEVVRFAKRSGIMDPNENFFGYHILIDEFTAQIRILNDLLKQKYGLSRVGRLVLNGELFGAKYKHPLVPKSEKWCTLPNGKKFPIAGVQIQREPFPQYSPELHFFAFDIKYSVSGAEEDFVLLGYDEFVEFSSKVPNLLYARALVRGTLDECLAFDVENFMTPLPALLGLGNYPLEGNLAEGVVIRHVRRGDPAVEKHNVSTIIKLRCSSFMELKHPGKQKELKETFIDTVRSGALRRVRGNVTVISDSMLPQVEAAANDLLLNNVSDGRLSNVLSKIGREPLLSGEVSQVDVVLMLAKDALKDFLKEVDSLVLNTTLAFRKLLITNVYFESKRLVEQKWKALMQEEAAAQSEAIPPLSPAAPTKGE

TbREL1 K441A = target: T3, TbREL1 K441A (Trypanosoma brucei, UniProt P86926 45-469, K441A, [35S]-methionine labelled); test: as above; conditions: partners not purified
T3 construct: Site-directed mutagenesis of TbREL1-pET30a; source: in vitro translated (TNT reticulocyte lysate coupled transcription and translation system, Promega); not shown: His6, N-terminal, kept
T3 sequence: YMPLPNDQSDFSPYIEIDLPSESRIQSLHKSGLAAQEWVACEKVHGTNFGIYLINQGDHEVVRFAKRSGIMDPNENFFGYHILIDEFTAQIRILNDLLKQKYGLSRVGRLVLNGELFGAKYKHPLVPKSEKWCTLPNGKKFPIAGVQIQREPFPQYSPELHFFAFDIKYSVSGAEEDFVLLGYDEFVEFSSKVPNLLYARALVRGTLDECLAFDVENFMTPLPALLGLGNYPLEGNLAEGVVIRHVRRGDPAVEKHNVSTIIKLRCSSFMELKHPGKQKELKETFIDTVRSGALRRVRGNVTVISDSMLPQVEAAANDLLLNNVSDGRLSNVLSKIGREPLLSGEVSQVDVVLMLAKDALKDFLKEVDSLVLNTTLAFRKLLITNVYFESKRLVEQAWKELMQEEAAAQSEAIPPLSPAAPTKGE

TbREL1 F206A = target: T4, TbREL1 F206A (Trypanosoma brucei, UniProt P86926 45-469, F206A, [35S]-methionine labelled); test: as above; conditions: partners not purified
T4 construct: Site-directed mutagenesis of TbREL1-pET30a; source: in vitro translated (TNT reticulocyte lysate coupled transcription and translation system, Promega); not shown: His6, N-terminal, kept
T4 sequence: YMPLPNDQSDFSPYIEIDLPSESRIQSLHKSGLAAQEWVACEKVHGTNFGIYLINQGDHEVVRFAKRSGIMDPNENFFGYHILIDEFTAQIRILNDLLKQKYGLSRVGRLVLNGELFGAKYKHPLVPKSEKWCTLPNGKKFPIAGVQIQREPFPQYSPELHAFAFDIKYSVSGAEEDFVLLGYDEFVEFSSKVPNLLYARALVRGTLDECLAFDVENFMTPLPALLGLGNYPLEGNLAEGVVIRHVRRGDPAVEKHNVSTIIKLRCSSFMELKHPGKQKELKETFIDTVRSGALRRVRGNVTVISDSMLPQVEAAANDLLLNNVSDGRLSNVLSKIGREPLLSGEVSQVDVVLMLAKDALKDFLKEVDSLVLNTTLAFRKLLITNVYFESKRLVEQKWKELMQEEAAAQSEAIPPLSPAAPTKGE

B1: KREPA2 (natural protein)
chain: MYRRFFRSAAVKHLGTTSAQCLMRATKYPCGAMCRNASSCHPQTLGYQQRFQSTTDKKFHCSVCKKPFRLEMAAKLHLQQAHGGDGSVEAGPGPGVEASSVNVVSTPVPSPISPVERTFVDEEERRPRRMRPTPKPLHQPDRDIPAAAMEEMLGVWDKIGLNRLEGNFVHSTMVMKVFAAPPDVSEIPLYEHVAPEGENPFDSLDHMTTGTVDATYVGHDAFAEVDLVDPFVAAPDQTLNPFRAGKVRNPFTRISPTQREVVKPLQPPQPKEEPLKAPVTPFGQLPMFGQTREPSASFAAAAVSVQAAANPNEVSSPFAAAVSSSPFVGQVASPFAPAQDVAGSPFEASPCAASSPFVTAGGQETSPFAAPSTPASFGQGSLFPPMGTGAPGFTAITETEQRQQELEHGCPTCGKKFSTFEGAAMHSKSKHGIVLESKKVKDRLNRKGVPDLPAYVPSPVDLSSTSPFGTRSAIGASWAETELIPHAQCVSNITIVGRVLDVSQASENVSHVTVFVEGERSGEEETLTLCCFGEVSQKIRGTLKRNATIFASGTLRLHPVYEASNNKYYVSPVVHVSMPTGTLAVIT
modifications: [35S]-methionine labelled
notes: KREPA2 of T. brucei, the KREPA2 open reading frame, expressed untagged (63 kDa); source: in vitro translated (TNT reticulocyte lysate coupled transcription and translation system, Promega)
With B1 the “adenylylation activity of TbREL1, enhancement in the presence of equimolar KREPA2” value [1] was 6.7 fold, the “ligation activity of TbREL1 (pre-cleaved RNA ligation assay), enhancement in the presence of equimolar KREPA2” value [1] was 3.6 fold and the “relative pulldown (% of the KREPA2 pulled down by TbREL1 WT)” value (TbREL1 E444A) was less than 50%. For the same binder, the “relative pulldown (% of the KREPA2 pulled down by TbREL1 WT)” value (TbREL1 K441A) was less than 50% and the “relative pulldown (% of the KREPA2 pulled down by TbREL1 WT)” value (TbREL1 F206A) was less than 50%.
